Here are results for four molecules from patent US20220041658A1 (PROTAGONIST THERAPEUTICS, published 2022).

Starred links: 1 amine or outer side, 2 acyl side, 3 side chain; linkers in the order of their positions; H or OH if unused. Positions of bridges follow the written chain, without caps; N, C: chain ends. Non-standard residues stand in square brackets, D forms with d. Trp(7-Et) = 7-ethyl-tryptophan, CCc1cccc2c(C[C@H](N[*:1])C(=O)[*:2])c[nH]c12; Trp(7-Me) = Cc1cccc2c(C[C@H](N)C(=O)O)c[nH]c12; 2Nal = N[C@@H](Cc1ccc2ccccc2c1)C(=O)O; AEF = NCCOc1ccc(C[C@H](N)C(=O)O)cc1; Cit = NC(=O)NCCC[C@H](N)C(=O)O; Pen = CC(C)(S)[C@H](N)C(=O)O; αMeK = C[C@](N)(CCCCN)C(=O)O; Aib = CC(C)(N)C(=O)O

B1: Peptide of SEQ ID NO: 264 (peptide)
peptide: Ac-[Pen]NT[Trp(7-Me)][Cit][Pen][AEF][2Nal][αMeK]K(Ac)N[Aib]-NH2
modifications: disulfide 1-6
SMILES: CC(=O)NCCCC[C@H](NC(=O)[C@](C)(CCCCN)NC(=O)[C@H](Cc1ccc2ccccc2c1)NC(=O)[C@H](Cc1ccc(OCCN)cc1)NC(=O)[C@H]1NC(=O)[C@H](CCCNC(N)=O)NC(=O)[C@H](Cc2c[nH]c3c(C)cccc23)NC(=O)[C@H]([C@@H](C)O)NC(=O)[C@H](CC(N)=O)NC(=O)[C@@H](NC(C)=O)C(C)(C)SSC1(C)C)C(=O)N[C@@H](CC(N)=O)C(=O)NC(C)(C)C(N)=O
B2: Peptide of SEQ ID NO: 284 (peptide)
peptide: Ac-[Pen]NT[Trp(7-Et)]K(Ac)[Pen][AEF][2Nal][αMeK]K(Ac)N[dL]-NH2
modifications: disulfide 1-6
SMILES: CCc1cccc2c(C[C@@H]3NC(=O)[C@H]([C@@H](C)O)NC(=O)[C@H](CC(N)=O)NC(=O)[C@@H](NC(C)=O)C(C)(C)SSC(C)(C)[C@@H](C(=O)N[C@@H](Cc4ccc(OCCN)cc4)C(=O)N[C@@H](Cc4ccc5ccccc5c4)C(=O)N[C@@](C)(CCCCN)C(=O)N[C@@H](CCCCNC(C)=O)C(=O)N[C@@H](CC(N)=O)C(=O)N[C@H](CC(C)C)C(N)=O)NC(=O)[C@H](CCCCNC(C)=O)NC3=O)c[nH]c12

The target of the first experiment is T1, interleukin-23 receptor (IL-23R) (human, UniProt Q5VWK5 24-629).
T1 sequence (looked up): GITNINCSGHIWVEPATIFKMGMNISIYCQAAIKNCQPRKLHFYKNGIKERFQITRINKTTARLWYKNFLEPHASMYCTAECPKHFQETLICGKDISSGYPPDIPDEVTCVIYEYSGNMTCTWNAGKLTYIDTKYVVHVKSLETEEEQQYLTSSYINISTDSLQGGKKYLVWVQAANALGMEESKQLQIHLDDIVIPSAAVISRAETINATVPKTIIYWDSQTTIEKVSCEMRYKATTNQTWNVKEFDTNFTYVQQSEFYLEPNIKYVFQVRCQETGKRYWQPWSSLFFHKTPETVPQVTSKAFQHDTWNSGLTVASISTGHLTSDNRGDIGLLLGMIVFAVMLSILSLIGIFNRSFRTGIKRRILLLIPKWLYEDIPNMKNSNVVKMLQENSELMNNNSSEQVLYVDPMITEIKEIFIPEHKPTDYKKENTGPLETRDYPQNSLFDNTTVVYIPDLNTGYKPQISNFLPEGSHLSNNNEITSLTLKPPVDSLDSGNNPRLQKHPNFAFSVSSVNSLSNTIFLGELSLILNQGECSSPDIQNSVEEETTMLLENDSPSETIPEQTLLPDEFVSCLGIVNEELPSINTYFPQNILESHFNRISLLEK
Description: cell-based or functional assay.
Turning to Ac-[Pen]NT[Trp(7-Me)]K(Ac)[Pen]H[2Nal][αMeK]K(Ac)N[dL]-NH2 (disulfide 1-6 (inferred)) [Peptide of SEQ ID NO: 290], the “NK Cell Assay IC50” value was 11 nM.

Take B1: the “NK Cell Assay IC50” value was found to be 5.15 nM.

As to Ac-[Pen]NT[Trp(7-Me)]K(Ac)[Pen][2Nal][2Nal][αMeK]K(Ac)N[dL]-NH2 (disulfide 1-6 (inferred)) [Peptide of SEQ ID NO: 289], the “NK Cell Assay IC50” value is 5.12 nM.

For the molecule B2, the “NK Cell Assay IC50” value came out at 3.16 nM.

The next experiment addresses T1, interleukin-23 receptor (IL-23R). Description: cell-based or functional assay. This is another data set of the same source.
As to Ac-[Pen]NT[Trp(7-Me)]K(Ac)[Pen]H[2Nal][αMeK]K(Ac)N[dL]-NH2 (disulfide 1-6 (inferred)) [Peptide of SEQ ID NO: 290], the “pStat3 HTRF IC50” value was found to be 2.45 nM.

Turning to B1, the “pStat3 HTRF IC50” value was 0.596 nM.

As to Ac-[Pen]NT[Trp(7-Me)]K(Ac)[Pen][2Nal][2Nal][αMeK]K(Ac)N[dL]-NH2 (disulfide 1-6 (inferred)) [Peptide of SEQ ID NO: 289], the “pStat3 HTRF IC50” value is 1.91 nM.

With B2, the “pStat3 HTRF IC50” value was found to be 0.34 nM.
